Source: the nanobody polyreactivity screen of Harvey et al. (2022)

Test: yeast display, Sf9 membrane polyspecificity reagent, FACS + sequencing; frameworks hold sequencing errors
Outline: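 Sorting gates, low and high (top ~1%), were placed on anti-HA fluorescence to track expression and on streptavidin fluorescence to track reagent binding. A clone's polyreactivity label is taken from the gate it came out of. The reagent was 10% biotinylated, detergent-solubilized Sf9 membrane, applied for 1 hour at 4 °C to galactose-induced yeast display cells.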

Sequence	polyreactivity (PSR sort gate)
QVQLVESGGGLVQAGGSLRLSCAASGSIFGTNAMGWYRQAPGKERELVAAISTSADITYYADSVKGRFTISRDNAKNTVYLQMNSLKPEDTAVYYCNKRKWPTFTYAMNYWGQGTQVTVSS	low polyreactivity
QVQLVESGGGLVQAGGSLRLSCAASGITFRYYAMGWYRPAPRKERELVAVISTSGGSTYYADSVKGRFTISRDNAKNTVYLQMNSLKPEDTAVYYCAARYSRSRRYRMDYWGQGTQVTVSS	high polyreactivity
QVQLLESGGGLVQAGGSLRLSCAASGFTLAFNAMGWYRQAPGKERELVASITSSSGSTYYADSVKGRFTISRDNAKNTVYLQLNSLKPEDTAVYYCARDLAIPQVLSQPIFGYWGQGTQVTVSS	low polyreactivity
QVQLVESGGGLVQAGGSLRLSSAASGSNFGYKAMGWYRQEPGKEREMVAAISYSGASTYYADSVKGRFTISRDNAKNTVYLQKHSLKPEDTAVYYCAAGWKRFSGRKHYYWGQGTQVTVSS	high polyreactivity
QVQLVESGGGLFQEGGSLRLSCAASGRIFSYYAMGWYRQAPGKERELVAGISSGGRTNYADSVKGRFTISRDNAKNTVYLQMNSLKPEDTAVYYCIARSFSLYWAYNYWGQGTQVTVSL	high polyreactivity
QVQLVESGGGLVQAGGSLRLSCAASGSIFEQNAMGWYRQAPGKERELVAAITWSGDSTYYADSVKGRFTISRDNAKNTVYLQMNSLKPEDTAVYYCAKEFGGTKRYGWYNYWGQGTQVTVSS	low polyreactivity
QVQLVESGGGLVQAGGRLRLSCAASGFTFRYYAMGWYRQAPGKERELVAAISGSGVSTYYADSVKGRFTISRDNAKNTVYLQMNSLKPEDTAVYYCAAGYPGHYYKYDYWGQGTQVTVSS	high polyreactivity
QVQLVESGGGLVQAGGSLRLSCAASGSIFYYYVMGWYRQAPGKEREFVAAISWGGDSTYYADSVKGRFTISRDNAKNTVYLQMNSLKPEDTAVYYCAAVRYNSRVSTTPSEMYYWGQGTQVTVSS	low polyreactivity
QFKLVESGGGLVQAGGSLRLSCAASGFTFRLVKAMRWYRQAPGKERELVAGINSGDITYYADSVKGRFTISRDNAKNTVYLQMNSLKPEDTAVYYCAARVVYGYGHYDYWGQGTQVTVSS	low polyreactivity
QVQLVESGGGLVQAGGSLRLICAASGITFTGYAMGWYRQAPGKERELVAAITRRGGRTYYADSVKGRFTISRDNAKNTVYLQMNSLKPEDTAVYYCARDNGSPYHYYYWGQGTQVTVSS	high polyreactivity
QVQLVESGGGLFQAGGSLRLSCAASGRTFQVNAMAWYRHAPGKERELVAAISASDGSTYADSVKGRFTISRDNAKNTVYLQMNSLKPEDTAVYYCNKADYGGHRTSEQVGWVYLYDYWGQGTQVTVSS	low polyreactivity
QVQLVESGGGLVQAGGSLRLSCAASGRTFARYVMGWYRQAPGKERELVAAINSGGNTYYADSVKGRFTISRDNAKNTVYLQMNSLKPEDTAVYYCAVKAARTYYWGQGTQVTVSS	high polyreactivity
QVQLVESGGGLVQAGGSLRLSCAASGSIFPHNAMGWYRPAPGKERELVAAISSGGSTNYADSVKGRFTISRDNANNTVYLQLNSLKPEDTAVYYCAKSIDGWYWRRRRYDYWGQGTQVTVSS	low polyreactivity
QVQLVESGGGLVQAGGSLRLSCAASGSIFTSNAMGWYRQAPGKERELVAVISRRGGSTYYADSVKGRFTISRDNAKNTVYLQMNSLKPEDTAVYYCARRPYSYTRYEYWGQGTQVTVSS	low polyreactivity
QVQLVESGGGLVQAGGSLRLSCAASGRIFQSNAMGWYRQAPGKEREFVARISKRGGSTYYADSVKGRFTISRDNAKNTVYLQMNSLKPEDTAVYYCAVRRHDRGTMGYWGQGTQVTVSS	low polyreactivity
QVQLVESGGGLVQAGGSLRLSCAASGRTFPIYAMGWYRQAPGKERELVASITRSGGSTYYADSVKGRFTISRDNAKNTVYLQMNSLKPEDTAVYYCAAAANSYSVYTGKFYYWGQGTQVTVSS	high polyreactivity
QVQLVESGGGLVQSGGSLRLSCAASGRTIGAYAMGWYRQAPGKEREFVAAITFGGGPTYYADSVKGRFTISRDNAKNTVYLQMNSLKPEDTAVYYCAKRIDLSFPFARYDYWGQGTQVTVSS	low polyreactivity
QVQLVESGGGLVQAGGSLRLSCAASGIIFRSYAMGWYRQAPGKERELVAAITGGGTTNYADSVKGRFTISRDNAKNTVYLQMNSLKPEDTAVYYCNAGLDWFWFNEMDYWGQGTQVTGSS	low polyreactivity
QVQLVESGGGLVQAGGRLRLSCAASGRTFANYAMGWYRQAPGKERELVAAITGSGSTNYADSVKGRFTISRDNAKNTVYLQMNSLKPEDTAVYYCAAAYKPYRCLYYPNSIDFGYWGQGTQVTVSS	high polyreactivity
QVQLVESGGGLVQAGVSLRLSCAASGRTFYGNAMGWYRQAPGKERELVAAISRSGGRTYYADSVKGRFTISRDNAKNTVYLQMNSLKPEDTAVYYCAKDYYYPSHTYGYWGQGTQVTVSS	high polyreactivity
QVQLVESGGGLVQAGGSLRLSCAASGRIFNRNAMGWYRQAPGKERELVAAISSDTSTNYADSVKGRFTISRDNAKNTVYLQMNSLKPEDTAVYYCAADVRRYDGYDYWGQGTQVTVSS	low polyreactivity
QVQLVESGGGLVQAGRSLRLSCAASGSTFDGYAMGWYRQAPGKERELVAAISYSGSSTYYADSVKGRFTNSRDNAKNTVYLQMNSLKPEDTAVYYCAVDDTHPFGPDGGGDYWGQGTQVTVSS	low polyreactivity

Sequence	polyreactivity (PSR sort gate)
QVQIVESGGCLVQAGGSLRLSCAASGFTLFLNSMGWYRQAPGQERELVAAISKSDGITYYADSVKGRFSISRDNAKNTVYLKMNSLKPEDTAVYYCNADARGWSVWDPGEYNYWGQGTQVNVSS	low polyreactivity
QVQLVESGGGLVQAGGSLRLTCAASGRTLRYNAMGWYRPAPVKERELVAAITSTGSTNYADSVKGRFTISRDNAKLTVYLHMNSLTAEDTAVYYCAKTSRYYWYGYDYWGQGTQVTVSS	high polyreactivity
QVQLVESGGGLVQAGGSLRLSCAASGSIQTLYAMGWYRQAPGKERELVAAITSGDRTNYADSVKGRFTISRDNAKNTVYLQMNSLKPEDTAVYYCATKRWWGRYDYWGQGTQVTVSS	high polyreactivity
QVQLQGSGGGLAQAGDSLRLSCAASGTIFSEYNNGLVSPGAGQRTRTCCRYWCWGNTYYADSAKGRFTTSRDNAKNTVYLQKNSLKPEDTAVYYCAFNRPYPSRHIYRGQGTQVTVSS	high polyreactivity
QVQLVESGGGLVQAGGSLRLSCAASGRTFFYAMGWYRQAPGKEREFVAAISWSGGSTYYADSVKGRFTISRDNAKNTVYLQMNSLKPEDTAVYYCNKVGYYGVGTSQEFDYWGQGTQVTVSS	high polyreactivity
QVQLVESGGGLVQAGGSLRLSCAASGSIFKCNAMGWYRQAPGKERELVASITRSGGSTYYADSVKGRFTISRDNAKNTVYLQMNSLKPEDTAVYYCARSYGWYRWAGYDYWGQGTQVTVSS	high polyreactivity
QVQLVESGGGLVQAGGSLRLSCAASGRIFGRNAMGWYRQAPGKEREFVAAITSSGGNTYYADSVKGRFTISRDNAKNTVYLQMNSLKPEDTAVYYCAARGARYCTSDYWGQGTQVTVSS	high polyreactivity
QVQLVESGGCLVQAGGSLRLSCAASGRIFYSYAMGWYRQAPGKERELVATISSGGSTNYADSVKGRFTISRDHAKNTVYLQMNSLKPEDTAVYFCAAADRLYWRGVIYRQYDYWGLGTQVTVSS	high polyreactivity
QVQLEESGGGLVQAGGSLRLSCAASGITFYYNDMGWYRQAPGKERELVAAISSGGTTNYADSVKGRFTISRDNAKNTFYLAMNSLKPEDTAVYYCATGYAEPEWDPFVSDYDYWGQGTQVTVSS	low polyreactivity
QVQLVESGGGLVQAGGSLRLSCAASGRTFRLNAMGWYRQAPGKERELVAAITASGGRTYYADSVKGRFTISRDNAKNTVYLQMNSLKPEDTAVYYCNTLSRTDASRFDYWGQGTQVTVSS	high polyreactivity
QVQLVESGGGLVQAGGSLRLSCAASGYIFTGNAMGWYRQAPGKERELVAAISKSGSRTYYADSVKGRFTISRDNAKNTVYLQMNSLKPEDTAVYYCNAYSARDSELDYWGQGTQVTVSS	high polyreactivity
QVQLVESGGGLVQAGGSLRLSCAASGFIFSRYAMGWYRQAPGKERELVAAISDYGGRTYYADSVKGRFTISRDNAKNTVYLQMNSLKPEDTAVYYCAADLEGYYPYEYWGQGTKVTVSS	high polyreactivity
QVQLVESGGGLVQAGGSLRLSCAASGSNLVHYAIGWYRQAPGKERELVAASSRGGSTNYADSVKGRFTISRDNAKNTVYLQMNSLKPEDTAVYYCAARRPWGEYYWGQGTQVTVSS	low polyreactivity
QVQLVESGGGLVQAGGSRRLSCAASGFTFSQYTRGWYRQAPGKERELVAAISSGSSTYYADSVKGRFTISRDNAKNTVYLQMNSLKPEDTAVYYCAARVGWYTWGYYWGQGTQVTVSS	high polyreactivity
QVQLVESGGGLVQAGGSLRLSCAASGIIFTYYAMGWYTQAPGKERELVAAISSRGDSTYYADSVKGRFTISRDNAKNTVYLQMNSLKPEDTAVYYCNRYLSRPLRAMYYWGLGTQVTVSS	high polyreactivity
QVQLVESGGGLVQAGGSLRLSCAASGRIFHRYAMGWYRQAPGKEREFVAAISSRGGSTYYADSLKGRFTISRDTAKNTVDFQINSLKPEETAVYYCAAQIGYRSGEFYYWGQGTQVTVSS	high polyreactivity
QVQLVESGGGLDQAGGSLPLSCAASGITSYVYAMRWYRQAPGKERELVASISWTGGNTYADSVKGRFTISRDNAKNTVYLPMNSLKPEDTAVYYCNAGRSWDYWYGYDYWGQGTQVTVSS	low polyreactivity
QVQLVESGGGLVQAGGSLRLSCAASGITFEYYDMGWYRQAPGKERELVAAISWSTDITYADSVKGRFTISRDNAKNTVYLQMNSLKPEDTAVYYCAASTYEYTSYDYWGHGTQVTVSS	low polyreactivity
QVQLLESGGRLVQAGGSLRLSCAPSGFIFISYALGWYRQAPGKERELDAAIDWRGGSSTYYADSVKGRFTISRDNAKNTVYFPMISLKPEDTAVYYCAAEGVTWYLWDFYDFYGYWGQGTQVTVSS	high polyreactivity
QVQLVESGGGIVQAGGILRLSSAASGRIFLGYAMGWSRQAPGKERELVASISGPAGSTNYADSVKGRFTISRDNAKNTVYLQMNSLKPEDTAVYYCAAEERYAYRYDYWGQGTQVTVSS	high polyreactivity
QVQLVESGGGLVQAGGSLRISCAAYGSTIVTNAMGWYRQAPVKERELVAASTSGAGTYYADSVKGRFTISRDNAKNTVYLQMNCLKTEDTAVYYCAARRYYSSGRYRFGYWGQGSQVTVSS	high polyreactivity
